Substitutions are numbered along the chain they refer to.
T1: human BCMA on cells (CHO-hBCMA clone 2C2; NCI-H929; RPMI-8226) (human, UniProt Q02223 1-184)
T1 construct: whole, on cells; also called Human BCMA-CHO; CHO-hBCMA-2C2
T1 sequence (looked up): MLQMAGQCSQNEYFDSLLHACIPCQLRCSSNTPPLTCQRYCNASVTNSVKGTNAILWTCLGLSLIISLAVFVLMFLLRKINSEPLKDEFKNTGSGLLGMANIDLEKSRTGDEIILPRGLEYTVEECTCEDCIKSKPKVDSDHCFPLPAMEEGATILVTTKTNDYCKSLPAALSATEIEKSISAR

T2: cynomolgus monkey CD3εγ-Fc heterodimer (cynomolgus monkey)
T2 chain 1: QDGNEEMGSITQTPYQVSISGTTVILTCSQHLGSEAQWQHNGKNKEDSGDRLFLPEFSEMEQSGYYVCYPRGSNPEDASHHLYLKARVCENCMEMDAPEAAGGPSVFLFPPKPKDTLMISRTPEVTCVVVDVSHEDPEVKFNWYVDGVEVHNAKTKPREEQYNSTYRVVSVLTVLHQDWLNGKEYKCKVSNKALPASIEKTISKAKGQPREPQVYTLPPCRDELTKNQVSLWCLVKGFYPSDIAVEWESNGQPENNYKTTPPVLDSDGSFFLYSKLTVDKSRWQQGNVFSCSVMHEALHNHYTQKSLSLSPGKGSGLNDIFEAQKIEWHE
T2 chain 2: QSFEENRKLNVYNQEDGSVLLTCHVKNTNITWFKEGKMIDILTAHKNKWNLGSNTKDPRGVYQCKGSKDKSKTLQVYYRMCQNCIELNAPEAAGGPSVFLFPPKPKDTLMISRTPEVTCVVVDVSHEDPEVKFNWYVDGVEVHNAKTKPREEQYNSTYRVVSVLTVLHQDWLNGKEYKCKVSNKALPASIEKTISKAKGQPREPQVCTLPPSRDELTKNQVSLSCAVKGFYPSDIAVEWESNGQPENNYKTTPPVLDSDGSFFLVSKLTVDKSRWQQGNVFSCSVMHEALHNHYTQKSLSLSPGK

T3: human BCMA recombinant antigen (human, UniProt Q02223 1-53)
T3 construct: range 1-53; also called human BCMA recombinant protein
T3 sequence (looked up): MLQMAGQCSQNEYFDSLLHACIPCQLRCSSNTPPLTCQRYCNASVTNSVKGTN

B1: BCMA×CD3 κλ003 (bispecific antibody, human IgG4 S228P, kappa, lambda)
light 1: DIVLTQSPASLAVSPGQRATITCRASKSVSTSGYSYMHWYQKKPGQPPKLLIYLASNLESGVPARFSGSGSGTDFTLTINPVEAEDTANYYCQHSRELPWTFGQGTKVEIKRTVAAPSVFIFPPSDEQLKSGTASVVCLLNNFYPREAKVQWKVDNALQSGNSQESVTEQDSKDSTYSLSSTLTLSKADYEKHKVYACEVTHQGLSSPVTKSFNRGEC
heavy 1: QVQLVQSGSELKKPGASVKVSCKASGYIFTNFGMNWVREAPGQGLEWMGWINTYTGEQIYADGFTGRFVFSLDTSASTAYLQISSLKAEDTAVYFCARGEIYYGYDVGFVYWGQGTLVTVSSASTKGPSVFPLAPCSRSTSESTAALGCLVKDYFPEPVTVSWNSGALTSGVHTFPAVLQSSGLYSLSSVVTVPSSSLGTKTYTCNVDHKPSNTKVDKRVESKYGPPCPPCPAPEFEGGPSVFLFPPKPKDTLMISRTPEVTCVVVDVSQEDPEVQFNWYVDGVEVHNAKTKPREEQFNSTYRVVSVLTVLHQDWLNGKEYKCKVSNKGLASSIEKTISKAKGQPREPQVCTLPPSQEEMTKNQVSLSCAVKGFYPSDIAVEWESNGQPENNYKTTPPVLDSDGSFFLVSKLTVDKSRWQEGNVFSCSVMHEALHNHYTQKSLSLSLGK
light 2: QAVVTQEPSLTVSPGGTVTLTCRSSTGAVTTSNYANWVQEKPGQAPRGLIGGTNKRAPWTPARFSGSLLGGKAALTITGAQAEDEAEYYCVLWYSNLWVFGGGTKLTVLGQPKAAPSVTLFPPSSEELQANKATLVCLISDFYPGAVTVAWKADSSPVKAGVETTTPSKQSNNKYAASSYLSLTPEQWKSHRSYSCQVTHEGSTVEKTVAPTECS
heavy 2: EVQLVESGGGLVQPGGSLRLSCAASGFTFNTYAMNWVRKAPGKGLEWVGRIRSKYNNYATYYADSVKDRFTISRDDSKNSLYLQMNSLKTEDTAVYYCVRHGNFGNSYVSWFAYWGQGTLVTVSSASTKGPSVFPLAPCSRSTSESTAALGCLVKDYFPEPVTVSWNSGALTSGVHTFPAVLQSSGLYSLSSVVTVPSSSLGTKTYTCNVDHKPSNTKVDKRVESKYGPPCPPCPAPEFEGGPSVFLFPPKPKDTLMISRTPEVTCVVVDVSQEDPEVQFNWYVDGVEVHNAKTKPREEQFNSTYRVVSVLTVLHQDWLNGKEYKCKVSNKGLASSIEKTISKAKGQPREPQVYTLPPCQEEMTKNQVSLWCLVKGFYPSDIAVEWESNGQPENNYKTTPPVLDSDGSFFLYSKLTVDKSRWQEGNVFSCSVMHEALHNHYTQKSLSLSLGK
B2: BCMA×CD3 κλ004 (bispecific antibody, human IgG4 S228P, kappa, lambda)
light 1: B1 light 1 with S30T, M37I, N57D, S60A
heavy 1: B1 heavy 1
light 2: B1 light 2
heavy 2: B1 heavy 2
B3: BCMA×CD3 κλ005 (bispecific antibody, human IgG4 S228P, kappa, lambda)
light 1: B1 light 1
heavy 1: B1 heavy 1 with A76V
light 2: B1 light 2
heavy 2: B1 heavy 2
B4: BCMA×CD3 κλ006 (bispecific antibody, human IgG4 S228P, kappa, lambda)
light 1: B1 light 1 with S30T, M37I, N57D, S60A
heavy 1: B1 heavy 1 with A76V
light 2: B1 light 2
heavy 2: B1 heavy 2

Legend:
[1] = biological target: T4, human CD3 on T cells (Jurkat cells; human peripheral blood CD4+ and CD8+ T cells) (human, UniProt P07766 23-207); test: flow cytometry, peripheral blood CD4+ T cells (PBMC)
T4 construct: whole, on cells; also called CD3ε
T4 sequence (P07766 23-207): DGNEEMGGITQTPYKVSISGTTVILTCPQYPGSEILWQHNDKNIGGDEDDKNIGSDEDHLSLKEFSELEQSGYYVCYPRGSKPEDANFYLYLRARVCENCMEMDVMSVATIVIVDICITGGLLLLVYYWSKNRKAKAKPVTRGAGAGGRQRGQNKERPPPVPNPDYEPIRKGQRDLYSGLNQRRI
Method: (§1) Fresh human or cynomolgus monkey peripheral blood was taken and PBMC was isolated by Ficoll-Paque Plu (GE, 17-1440-03). […] 50 μL/well Alexa Fluro647 labeled goat anti-human IgG Fc (1:300 dilution) was added to the secondary antibody, ice bath for 20 min, 50 μL/well PI was added after washing once, incubated for 5 min, and flow cytometer (BD C6) was used to perform detection.

[2] = biological target: T1, human BCMA on cells (CHO-hBCMA clone …); test: flow cytometry, RPMI-8226 cells
Method: (§2) The primary antibody was washed off, 50 μL/well Alexa Fluro647 labeled goat anti-human IgG Fc (1:300 dilution) was added, incubated on ice for 20 min, 50 μL/well PI was added after washing once, incubated for 5 min, and flow cytometer was used to perform detection.

[3] = biological target: T4, human CD3 on T cells (Jurkat cells; …); test: flow cytometry, Jurkat cells
Method: Jurkat cells in the logarithmic growth phase were added with 200 μg/mL murine IgG (Jackson ImmunoResearch, 115-005-03) and incubated on ice for 30 min. […] 50 μL/well Alexa Fluro647 labeled goat anti-human IgG Fc (1:300 dilution) was added to the secondary antibody, incubated on ice for 20 min, 50 μL/well PI was added after washing once, incubated for 5 min, and flow cytometer (BD C6) was used to perform detection.

[4] = biological target: T2, cynomolgus monkey CD3εγ-Fc heterodimer; test: SPR (Biacore T200), antigen amine-coupled to CM5, antibody as analyte, 1:1 model
Method: (§3) 10 μg/mL human or cynomolgus monkey BCMA or CD3εγ recombinant antigen was bound to a CM5 chip (GE healthcare) by amino coupling, controlling the amount of antigen bound to approximately 200 RU. After the baseline plateau, gradient-diluted antibodies (from 10 μg/mL, 2-fold dilutions for 7 gradients) flowed through the chip at a flow rate of 30 μL/min for a binding time of 350 seconds and a dissociation time of 600 seconds. Kinetic constants were fitted using Biacore T200 evaluation software with a 1:1 binding model.

[5] = biological target: T3, human BCMA recombinant antigen; test: as above
Method: as §3

[6] = biological target: T5, cynomolgus monkey BCMA recombinant antigen (cynomolgus monkey, UniProt A0A2K5UD97 1-51); test: as above
T5 construct: range 1-52
T5 sequence (A0A2K5UD97 entry or part of it): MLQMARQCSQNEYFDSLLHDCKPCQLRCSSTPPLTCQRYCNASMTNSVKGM
Method: as §3

[7] = biological target: T6, cynomolgus monkey BCMA on CHO cells (CHO-cynoBCMA clone 1A2) (cynomolgus monkey, UniProt A0A2K5UD97 1-183); test: flow cytometry, CHO-cynomolgus monkey BCMA cells
T6 construct: whole, on cells; also called Cynomolgus monkey BCMA-CHO; CHO-cynoBCMA-1A2
T6 sequence (A0A2K5UD97 entry or part of it): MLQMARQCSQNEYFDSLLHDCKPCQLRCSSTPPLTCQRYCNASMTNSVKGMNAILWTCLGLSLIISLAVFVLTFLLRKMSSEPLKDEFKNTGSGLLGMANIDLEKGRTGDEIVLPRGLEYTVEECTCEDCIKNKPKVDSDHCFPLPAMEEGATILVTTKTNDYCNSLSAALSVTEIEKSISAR
Method: (§4) 50 μL/well Alexa Fluro647 labeled goat anti-human IgG Fc (1:300 dilution) was added to the secondary antibody, incubated on ice for 20 min, 50 μL/well PI solution (1:300) was added after washing once, incubated for 5 min, and flow cytometer was used to perform detection.

[8] = biological target: T3, human BCMA recombinant antigen; test: competition ELISA, coated human BCMA, antibody varied, then biotinylated human APRIL at 240 ng/mL, SA-HRP
Method: 1 μg/mL human BCMA recombinant antigen was prepared with pH 9.6 carbonic acid buffer, added to a maxisorp96-well plate, and coated overnight at 4° C. After blocking with 5% skim milk/PBS for 1 h at room temperature, 50 μL antibody per well (4-fold dilution from 30 μg/mL for a total of 10 gradients) was added and incubated for 30 min at room temperature. […] After 3 washes with 0.05% PBST (PBS+0.05% Tween-20) and PBS respectively, 100 μL of SA-HRP (diluted 1:8000) was added to each well and incubated at room temperature for 45 min. Washing 3 times with 0.05% PBST and PBS respectively, 100 μL TMB color-developing solution was added into each well, after 10 min, 50 μL concentrated sulfuric acid was added into each well to stop the reaction, read OD450 nm by a microplate reader, and perform three-parameter fitting curve using Graphpad software.

[9] = biological target: T1, human BCMA on cells (CHO-hBCMA clone …); test: flow cytometry, CHO-human BCMA cells
Method: as §4

[10] = biological target: T1, human BCMA on cells (CHO-hBCMA clone …); test: flow cytometry, NCI-H929 cells
Method: as §2

[11] = biological target: T4, human CD3 on T cells (Jurkat cells; …); test: flow cytometry, peripheral blood CD8+ T cells (PBMC)
Method: as §1

Binder | EC50 [1] [nM] | EC50 [2] [nM] | EC50 [3] [nM] | Kd [4] [nM] | Kd [5] [nM] | Kd [6] [nM] | EC50 [7] [nM] | IC50 (read off the curve) [8] [nM] | EC50 [9] [nM] | EC50 [10] [nM] | EC50 [11] [nM]
B1 | 87 | 34 | 66 | 43 | 1.3 | 0.16 | 3 | ~8 | 16 | 34 | 97
B2 | 77 | 39 | 61 | 43 | 1 | 0.12 | 3 | ~5 | 22 | 36 | 84
B3 | 66 | 38 | 51 | 20 | 1.1 | 0.09 | 3 | ~3 | 24 | 33 | 60
B4 | 91 | 19 | 56 | 33 | 1.2 | 0.1 | 3 | ~2 | 16 | 32 | 93

Source: US20250277045A1 (KEYMED BIOSCIENCES, published 2025)
